Test results: article PMC6238587, “Molecular analysis of human Ero1 reveals novel regulatory mechanisms for oxidative protein folding” (Life Science Alliance, 2018)

B2: human Ero1α, wild type, N-terminal His tag (E24-H468) (enzyme, UniProt Q96HE7 24-468, looked up)
chain: EEQPPETAAQRCFCQVSGYLDDCTCDVETIDRFNNYRLFPRLQKLLESDYFRYYKVNLKRPCPFWNDISQCGRRDCAVKPCQSDEVPDGIKSASYKYSEEANNLIEECEQAERLGAVDESLSEETQKAVLQWTKHDDSSDNFCEADDIQSPEAEYVDLLLNPERYTGYKGPDAWKIWNVIYEENCFKPQTIKRPLNPLASGQGTSEENTFYSWLEGLCVEKRAFYRLISGLHASINVHLSARYLLQETWLEKKWGHNITEFQQRFDGILTEGEGPRRLKNLYFLYLIELRALSKVLPFFERPDFQLFTGNKIQDEENKMLLLEILHEIKSFPLHFDENSFFAGDKKEAHKLKEDFRLHFRNISRIMDCVGCFKCRLWGKLQTQGLGTALKILFSEKLIANMPESGPSYEFHLTRQEIVSLFNAFGRISTSVKELENFRNLLQNIH
modifications: (phospho)gluconoylation of the N-terminal His tag, gluconoylated species the major state
notes: human Ero1α, mature, residues E24-H468; With co-expressed PDI it purifies as a heterodimer; also called endoplasmic reticulum oxidoreductin 1 alpha; CCCC; source: E. coli BL21(DE3)ΔtrxAΔtrxC with CyDisCo components co-expressed; in lysate, and purified (cobalt IMAC, anion exchange, size exclusion)
B4: human PDI, wild type, non-tagged, purified (enzyme)
chain: not shown
B5: human Ero1β, wild type, N-terminal His tag (Q34-R467, natural D129V and H465Q variant) (enzyme, UniProt Q86YB8 34-467, looked up)
chain: QVTGVLDDCLCDIDSIDNFNTYKIFPKIKKLQERDYFRYYKVNLKRPCPFWAEDGHCSIKDCHVEPCPESKIPVGIKAGHSNKYLKMANNTKELEVCEQANKLGAINSTLSNQSKEAFIDWARYDDSRDHFCELDDERSPAAQYVDLLLNPERYTGYKGTSAWRVWNSIYEENCFKPRSVYRPLNPLAPSRGEDDGESFYTWLEGLCLEKRVFYKLISGLHASINLHLCANYLLEETWGKPSWGPNIKEFKHRFDPVETKGEGPRRLKNLYFLYLIELRALSKVAPYFERSIVDLYTGNAEEDADTKTLLLNIFQDTKSFPMHFDEKSMFAGDKKGAKSLKEEFRLHFKNISRIMDCVGCDKCRLWGKLQTQGLGTALKILFSEKEIQKLPENSPSKGFQLTRQEIVALLNAFGRLSTSIRDLQNFKVLLQQSR
modifications: (phospho)gluconoylation of the N-terminal His tag, gluconoylated species the major state
notes: human Ero1β, mature, residues Q34-R467, natural D129V and H465Q variant; With co-expressed PDI it purifies as a heterodimer; also called CCCC; source: E. coli BL21(DE3)ΔtrxAΔtrxC with CyDisCo components co-expressed; in lysate, and purified (cobalt IMAC, anion exchange, size exclusion)
B6: human PDI with three consecutive FLAG tag sequences inserted before the ER retention signal, non-His-tagged (enzyme)
chain: not shown
notes: human PDI, mature, codon-optimized; residues after the TEV site probably stay on the protein; also called PDI3FLAG; source: E. coli, purified (cobalt IMAC, TEV protease cleavage, anion exchange); not shown: 3xFLAG, internal (after residue 503), kept; His6, N-terminal, cleaved

Key:
[1] = target: His-tagged Ero1β–PDI heterodimer (human, UniProt Q86YB8 34-467; P07237 18-508, D129V | H465Q, (phospho)gluconoylation of the N-terminal His tag, gluconoylated species the major state); assay: cell-based or functional assay
Chain of His-tagged Ero1β–PDI heterodimer (P07237 18-508, stated change not applied, one chain of several): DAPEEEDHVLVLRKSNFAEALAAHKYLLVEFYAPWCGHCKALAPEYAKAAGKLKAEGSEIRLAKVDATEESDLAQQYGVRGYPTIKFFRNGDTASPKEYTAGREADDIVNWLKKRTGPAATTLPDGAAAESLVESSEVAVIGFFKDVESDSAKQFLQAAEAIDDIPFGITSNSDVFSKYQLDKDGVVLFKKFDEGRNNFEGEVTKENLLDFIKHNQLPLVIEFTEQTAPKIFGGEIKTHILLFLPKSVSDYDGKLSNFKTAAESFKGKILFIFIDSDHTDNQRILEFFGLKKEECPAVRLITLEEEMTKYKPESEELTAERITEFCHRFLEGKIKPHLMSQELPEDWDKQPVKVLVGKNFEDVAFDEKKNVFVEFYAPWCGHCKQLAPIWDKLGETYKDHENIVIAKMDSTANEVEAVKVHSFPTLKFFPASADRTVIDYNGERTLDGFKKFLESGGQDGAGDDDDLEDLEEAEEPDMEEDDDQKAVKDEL

[2] = target: B4; assay: pull-down; PDI exchange assay: 1 μM His-tagged Ero1–PDI heterodimer with non-His-tagged PDI, PDI3FLAG or other PDI family member (1:1 or 10:1), 1 h at RT, 20 mM sodium phosphate pH 7.3, 150 mM NaCl; Ni-NTA spin columns with 10 mM imidazole; reducing SDS–PAGE; details: both partners purified
[3] = target: B6; assay: pull-down; PDI exchange assay with the redox state of both components fixed by GSSG before mixing; details: both partners purified
[4] = target: T1, human Ero1α C104A/C131A, N-terminal His tag (human, UniProt Q96HE7 24-468, C104A | C131A); assay: pull-down; His-tagged Ero1 co-expressed with untagged PDI (CyDisCo) in E. coli; large-scale purification by cobalt IMAC, anion exchange and size-exclusion chromatography; SDS–PAGE; details: partners not purified
T1 construct: human Ero1α, mature, residues E24-H468; also called CCAA (h.a.); source: E. coli BL21(DE3)ΔtrxAΔtrxC with CyDisCo (Erv1p, PDI) co-expressed; in lysate, and purified
T1 sequence (looked up): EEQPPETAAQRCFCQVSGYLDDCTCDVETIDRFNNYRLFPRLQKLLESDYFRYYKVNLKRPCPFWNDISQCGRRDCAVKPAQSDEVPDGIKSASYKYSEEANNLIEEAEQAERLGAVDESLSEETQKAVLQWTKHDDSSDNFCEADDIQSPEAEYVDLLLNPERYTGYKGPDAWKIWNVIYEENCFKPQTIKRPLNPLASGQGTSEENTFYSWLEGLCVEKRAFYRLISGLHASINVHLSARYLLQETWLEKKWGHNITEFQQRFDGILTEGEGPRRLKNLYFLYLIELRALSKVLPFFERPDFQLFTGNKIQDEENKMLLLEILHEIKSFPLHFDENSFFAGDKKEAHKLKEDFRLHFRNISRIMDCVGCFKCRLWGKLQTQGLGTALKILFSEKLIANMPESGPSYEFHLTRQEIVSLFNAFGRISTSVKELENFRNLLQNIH

[5] = target: B5; assay: as above; details: partners not purified
[6] = target: B2; assay: as above; details: partners not purified
[7] = target: T2, human Ero1β C100/130A, N-terminal His tag (human, UniProt Q86YB8 34-467, D129V | H465Q | C100/130A | C100/130A); assay: as above; details: partners not purified
T2 construct: human Ero1β, mature, residues Q34-R467, natural D129V and H465Q variant; also called CCAA (h.a.); source: E. coli BL21(DE3)ΔtrxAΔtrxC with CyDisCo (Erv1p, PDI) co-expressed; in lysate, and purified
T2 sequence (looked up): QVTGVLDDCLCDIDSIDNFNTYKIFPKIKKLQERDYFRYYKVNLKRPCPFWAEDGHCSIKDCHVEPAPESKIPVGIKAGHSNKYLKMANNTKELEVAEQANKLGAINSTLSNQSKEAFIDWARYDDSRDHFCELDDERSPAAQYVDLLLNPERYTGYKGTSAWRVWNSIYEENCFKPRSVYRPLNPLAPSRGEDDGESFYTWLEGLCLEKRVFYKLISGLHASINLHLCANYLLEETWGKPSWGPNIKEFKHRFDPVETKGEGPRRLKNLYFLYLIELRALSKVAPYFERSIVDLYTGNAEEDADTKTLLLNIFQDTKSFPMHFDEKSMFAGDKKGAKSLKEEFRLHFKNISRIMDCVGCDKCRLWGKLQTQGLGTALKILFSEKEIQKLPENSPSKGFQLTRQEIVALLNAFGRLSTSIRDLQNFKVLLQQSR

[8] = target: His-tagged Ero1α–PDI heterodimer (human, UniProt Q96HE7 24-468; P07237 18-508, (phospho)gluconoylation of the N-terminal His tag, gluconoylated species the major state); assay: cell-based or functional assay
Chain of His-tagged Ero1α–PDI heterodimer (P07237 18-508, one chain of several): as the sequence (P07237 18-508, stated change not applied, one chain of several) above

[9] = target: B5; assay: pull-down; PDI exchange assay: 1 μM His-tagged Ero1–PDI heterodimer with non-His-tagged PDI, PDI3FLAG or other PDI family member (1:1 or 10:1), 1 h at RT, 20 mM sodium phosphate pH 7.3, 150 mM NaCl; Ni-NTA spin columns with 10 mM imidazole; reducing SDS–PAGE; details: both partners purified
[10] = target: B2; assay: as above; details: both partners purified

B1: human PDIp, non-tagged (enzyme, UniProt Q13087 22-525, looked up)
chain: QEQGARSPSEEPPEEEIPKEDGILVLSRHTLGLALREHPALLVEFYAPWCGHCQALAPEYSKAAAVLAAESMVVTLAKVDGPAQRELAEEFGVTEYPTLKFFRNGNRTHPEEYTGPRDAEGIAEWLRRRVGPSAMRLEDEAAAQALIGGRDLVVIGFFQDLQDEDVATFLALAQDALDMTFGLTDRPRLFQQFGLTKDTVVLFKKFDEGRADFPVDEELGLDLGDLSRFLVTHSMRLVTEFNSQTSAKIFAARILNHLLLFVNQTLAAHRELLAGFGEAAPRFRGQVLFVVVDVAADNEHVLQYFGLKAEAAPTLRLVNLETTKKYAPVDGGPVTAASITAFCHAVLNGQVKPYLLSQEIPPDWDQRPVKTLVGKNFEQVAFDETKNVFVKFYAPWCTHCKEMAPAWEALAEKYQDHEDIIIAELDATANELDAFAVHGFPTLKYFPAGPGRKVIEYKSTRDLETFSKFLDNGGVLPTEEPPEEPAAPFPEPPANSTMGSKEEL
In the case of B1, the “acceleration of kcat of oxygen consumption by 10 μM external PDIp” value [1] is reported as 3.7 fold.

B2: binds [2]; binds [3].

B3: human protein disulfide isomerase (PDI), wild type, co-expressed CyDisCo component (enzyme)
chain: not shown
notes: human PDI, wild-type codon-optimized gene of the CyDisCo plasmid pMJS205; also called wild-type PDI; source: E. coli BL21(DE3)ΔtrxAΔtrxC, co-expressed with Ero1 from pMJS205; in lysate, and co-purified with His-tagged Ero1
B3 was tested, and the “stoichiometry N” value [4] was 1 PDI per Ero1, the “stoichiometry N” value [5] was about 1 PDI per Ero1 and the “stoichiometry N” value [6] was about 1 PDI per Ero1. For the same binder, the “stoichiometry N” value [7] was 1 PDI per Ero1.

With B4 the “acceleration of kcat of oxygen consumption by 10 μM external PDI” value [1] was 4.8 fold and the “acceleration of kcat of oxygen consumption by 10 μM external PDI” value [8] was 7.1 fold.

B5: binds [2]; binds [3].

In the case of B6, the “ratio of co-purified PDI3FLAG to wild-type PDI (PDI3FLAG added 1:1)” value [9] is reported as ~1 PDI3FLAG per wild-type PDI, the “wild-type PDI left in the complex with 10-fold PDI3FLAG, percent of the original” value [9] is reported as about 10% and the “ratio of co-purified PDI3FLAG to wild-type PDI (PDI3FLAG added 1:1)” value [10] is reported as ~1 PDI3FLAG per wild-type PDI. For the same binder, the “wild-type PDI left in the complex with 10-fold PDI3FLAG, percent of the original” value [10] was about 10%.
